Test results as given in US6475768B1 (Forskarpatent I Syd AB, priority 2000, dated 2002).
Residue numbers refer to the chain shown, from its start. In names and notes the source's numbering stands.

How the values were obtained:
[1] = target: Thermus thermophilus xylose isomerase (xylA), mutant 1010 (M1010) (Thermus thermophilus, UniProt P26997); type: biochemical
Procedure: (§1) The cells were harvested by centrifugation in the stationary phase of growth and washed once with ice cold distilled water. Washed cells were resusprended in 100 mM triethanolamine, pH 7.0, 0.5 mg/ml lysozyme (130000 U/mg), 0.25 mg/ml DNase, and 1 mM phenylmethylsulphonyl fluoride (PMSF) in dimethylsulfoxide (DMSO). The suspensions were kept at room temperature for one hour and then on ice for two hours before being put in a freezer at −20° C. The cell lysates were thawed on ice, cell debris was removed by centrifugation (1300 rpm for 15 minutes at 4° C.) and the supernatants were used as the crude enzyme preparations.
(§2) Protein concentration was determined with the Bradford method (Bradford (1976)) using the Pierce protein reagent with bovine serum albumin as standard.
(§3) The reaction was terminated after 10 minutes by adding 150 μl 50% trichloroaceticacid. The reaction mixture was neutralized with 185 μl 2 M Na2CO3. The formed xylulose or fructose was measured on a COBAS MIRA (Roche) automated spectrophotometer via enzymatic reduction with 0.04 or 0.5 units of Sorbitol Dehydrogenase (purchased from Roche), respectively in the presence of 0.15 mM NADH at pH 7.0, 37° C. in 200 μl reaction volume. The rate of disappearance of NADH was followed at 340 nm and the concentration of D-xylulose or D-fructose was calculated using calibration curves. […] The specific activity (U min^−1 mg^−1) was determined from the activity and the protein concentration of the crude enzyme preparations.
(§4) The kinetic parameters Vmax (μmol min^−1 mg^−1) and Km (mM) were determined from Michaelis-Menten plots of specific activities at various substrate concentrations by nonlinear regression analysis with Sigma Plot (SSPS Inc.) software. Typically, duplicate measurements were used to determine the Km value at 6-10 concentrations of the substrate, with a concentration range covering the value of Km.

[2] = target: Thermus thermophilus xylose isomerase mutants (1010, 1021, 1024, 1026); assay: Inhibition constant for xylitol, mutants compared to wildtype; type: biochemical; details: the mutants compared to the wildtype enzyme, xylose 20-400 mM
Procedure: as §1
as §3, with “preparations. […]” for “preparations.”

[3] = target: T1, Thermus thermophilus xylose isomerase, wild type (nucleic acid sequence SEQ ID NO: 2) (Thermus thermophilus, UniProt P26997); assay: biochemical
T1 sequence (P26997 1-387): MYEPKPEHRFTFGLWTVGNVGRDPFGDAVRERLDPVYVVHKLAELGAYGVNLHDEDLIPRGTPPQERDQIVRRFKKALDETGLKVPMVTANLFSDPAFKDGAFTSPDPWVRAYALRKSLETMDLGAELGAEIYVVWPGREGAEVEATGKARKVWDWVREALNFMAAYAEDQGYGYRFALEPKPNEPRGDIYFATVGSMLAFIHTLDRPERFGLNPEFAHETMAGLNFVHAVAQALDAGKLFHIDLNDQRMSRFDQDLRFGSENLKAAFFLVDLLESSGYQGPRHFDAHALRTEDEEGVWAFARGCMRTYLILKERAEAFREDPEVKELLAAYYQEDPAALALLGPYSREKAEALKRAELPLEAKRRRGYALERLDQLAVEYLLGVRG

[4] = target: T2, Thermus thermophilus xylose isomerase (xylA), mutant 1021 (M1021) (Thermus thermophilus, UniProt P26997, E372G/V379A); assay: Kinetic characterisation of mutant xylose isomerase 1021 (xylose/glucose isomerase activity, xylitol inhibition); type: biochemical
T2 construct: made in house; host or cells: E. coli HB101 (crude lysate)
T2 sequence (P26997 1-387 E372G/V379A): T1 sequence (P26997 1-387) with E372G, V379A
Procedure: as §1, §2
(§5) The reaction was terminated after 10 minutes by adding 150 μl 50% trichloroaceticacid. The reaction mixture was neutralized with 185 μl 2 M Na2CO3. The formed xylulose or fructose was measured on a COBAS MIRA (Roche) automated spectrophotometer via enzymatic reduction with 0.04 or 0.5 units of Sorbitol Dehydrogenase (purchased from Roche), respectively in the presence of 0.15 mM NADH at pH 7.0, 37° C. in 200 μl reaction volume. The rate of disappearance of NADH was followed at 340 nm and the concentration of D-xylulose or D-fructose was calculated using calibration curves. […]

[5] = target: T3, Thermus thermophilus xylose isomerase (xylA), mutant 1026 (M1026) (Thermus thermophilus, UniProt P26997, E372G); assay: Kinetic characterisation of mutant xylose isomerase 1026 (xylose/glucose isomerase activity, xylitol inhibition); type: biochemical; details: mutant 1026, crude enzyme, 10 mM MnCl2, pH 7.0
T3 construct: made in house; host or cells: E. coli HB101 (crude lysate)
T3 sequence (P26997 1-387 E372G): T1 sequence (P26997 1-387) with E372G
Procedure: as §1, §2, §5

[6] = target: T4, Thermus thermophilus xylose isomerase (xylA), mutant 1024 (M1024) (Thermus thermophilus, UniProt P26997, E372G/F163L); assay: Kinetic characterisation of mutant xylose isomerase 1024 (xylose/glucose isomerase activity, xylitol inhibition); type: biochemical; details: mutant 1024, crude enzyme, 10 mM MnCl2, pH 7.0
T4 construct: made in house; host or cells: E. coli HB101 (crude lysate)
T4 sequence (P26997 1-387 F163L/E372G): T1 sequence (P26997 1-387) with F163L, E372G
Procedure: as §1, §2, §5

[7] = target: T1, Thermus thermophilus xylose isomerase, wild type (nucleic acid sequence SEQ ID NO: 2); details: crude enzyme, 10 mM MnCl2, pH 7.0
[8] = substrate: OC[C@H]1OC(O)[C@H](O)[C@@H](O)[C@@H]1O; assay: cells, lysate or membranes named; type: biochemical, Thermus thermophilus; details: other: mutant 1021, crude enzyme, 10 mM MnCl2, pH 7.0
Procedure: as §1, §2
as §3, with “preparations. […] The temperature optimum for the mutants were roughly the same as for the wild type enzyme except for mutant 1021, which had ˜10° C. lower temperature optimum.” for “preparations.”
as §4

[9] = substrate: OC1OC[C@@H](O)[C@H](O)[C@H]1O; assay: cells, lysate or membranes named; type: biochemical, Thermus thermophilus; details: 10 mM MnCl2, pH 7.0
Procedure: as §1, §2
as §3, with “preparations. […] The temperature optimum for the mutants were roughly the same as for the wild type enzyme except for mutant 1021, which had ˜10° C. lower temperature optimum.” for “preparations.”
as §4

[10] = Effect of pH on the activity of the enzymes; type: biochemical; details: 60° C., 700 mM D-xylose, 10 mM MnCl2, pH range 5-10
Procedure: The effect of pH on the activity of the enzymes was followed in the pH range 5-10 in a buffer prepared by mixing acetate, piperazine-N,N'-bis-(2-ethanolsulphonic acid) (PIPES), […] (HEPES) and glycine at final concentration 50 mM each as described by (Dekker at al. (1992) Appl. Mirobiol. Biotechnol. 36: 727-732). The pH was adjusted at 60° C. with NaOH.

[11] = cited from earlier work
[12] = Effect of different bivalent cations on the activity of EDTA treated enzymes; type: biochemical; details: EDTA treated enzyme, activity with 10 mM MnCl2 at 60° C. set to 100%
Procedure: Furthermore, the effect of different bivalent cations (10 mM) on the activity of EDTA treated enzymes was investigated. The specific activity with 10 mM MnCl2 at 60° C. was set to 100% for each enzyme.

[13] = Xylose isomerase activity assay of crude enzyme preparations from E. coli HB101; type: biochemical
Procedure: The cells were harvested by centrifugation in the stationary phase of growth and washed once with ice cold distilled water. […] The suspensions were kept at room temperature for one hour and then on ice for two hours before being put in a freezer at −20° C. The cell lysates were thawed on ice, cell debris was removed by centrifugation (1300 rpm for 15 minutes at 4° C.) and the supernatants were used as the crude enzyme preparations. Protein concentration was determined with the Bradford method (Bradford (1976)) using the Pierce protein reagent with bovine serum albumin as standard. […] The reaction mixture was neutralized with 185 μl 2 M Na2CO3. […] The rate of disappearance of NADH was followed at 340 nm and the concentration of D-xylulose or D-fructose was calculated using calibration curves. […] The specific activity (U min^−1 mg^−1) was determined from the activity and the protein concentration of the crude enzyme preparations.

[14] = substrate: OC1OC[C@@H](O)[C@H](O)[C@H]1O; assay: cells, lysate or membranes named; details: other: wild type, crude enzyme, 10 mM MnCl2, pH 7.0
[15] = mutant 1010, crude enzyme, 10 mM MnCl2, pH 7.0
[16] = other: mutant 1021, crude enzyme
[17] = other: mutant 1024, crude enzyme

OC[C@@H](O)[C@H](O)[C@@H](O)CO [xylitol]
Ki ([1]; read-out: Ki xylitol, mutant 1010, xylose 20-400 mM, fixed xylitol concentrations): 10.1 mM | Ki for xylitol [2]: higher Ki for xylitol | Ki [3]: 4.6 mM | Ki [4]: 33.2 mM

OC[C@H]1OC(O)[C@H](O)[C@@H](O)[C@@H]1O (stereo partly drawn) [glucose]
Vmax glucose [1, 15]: 0.0034 µmol/min/mg | Vmax glucose [5]: 0.18 µmol/min/mg | Vmax glucose [6]: 0.54 µmol/min/mg | Vmax glucose [7]: 0.015 µmol/min/mg

OC1OC[C@@H](O)[C@H](O)[C@H]1O (stereo partly drawn) [xylose, D-xylose]
Vmax xylose [1, 15]: 0.44 µmol/min/mg | Km ([1]; read-out: Km xylose, mutant 1010, crude enzyme, 10 mM MnCl2, pH 7.0): 16.6 ± 2.2 mM

B1: Thermus thermophilus xylose isomerase (xylA), mutant 1021 (M1021) (Thermus thermophilus HB8; E372G/V379A) (protein)
chain: T1 sequence (P26997 1-387) with E372G, V379A
notes: made in house; host or cells: E. coli HB101 (crude lysate)
Km [8]: 52.0 ± 4.9 mM | Vmax [8]: 0.13 µmol/min/mg | Km [9, 16]: 25.1 ± 4.0 mM | Vmax [9, 16]: 0.84 µmol/min/mg

B2: Thermus thermophilus xylose isomerase (xylA), mutant 1024 (M1024) (Thermus thermophilus HB8; E372G/F163L) (protein)
chain: T1 sequence (P26997 1-387) with F163L, E372G
notes: as for B1
Km [9, 17]: 89.4 ± 8.4 mM | Vmax [9, 17]: 3.08 µmol/min/mg

B3: Thermus thermophilus xylose isomerase, wild type (nucleic acid sequence SEQ ID NO: 2) (Thermus thermophilus HB8) (protein)
chain: T1 sequence (P26997 1-387)
pH optimum [10]: 6-7.5 | activity at 30° C. [11]: only trace activity | Co^2+ (% relative activity) ([12]; 10 mM Co2+): 87.9% | Mg^2+ (% relative activity) ([12]; 10 mM Mg2+): 73.8% | Vmax at 30° C. ([13]; 30° C., 700 mM D-xylose, 10 mM MnCl2, pH 7.0, crude enzyme): 0.014 μmol/min^−1mg^−1 | Temp. optimum ([13]; xylose as substrate, pH 7.0): 85 °C | Km [14]: 3.44 ± 0.4 mM | Vmax [14]: 0.043 µmol/min/mg
